Experimental findings from publication PMC10290082, “Tau protein binds to the P53 E3 ubiquitin ligase MDM2” (Scientific Reports, 2023) are described below.

This assay concerns the target T1, recombinant human MDM2 (human, UniProt Q00987 1-491).
T1 construct: E3 ubiquitin-protein ligase MDM2, human; source: bought: Biotechne (E3-204-050)
The experiment in a line: pull-down; purified recombinant proteins (15 ng), alone or together, on beads coupled to the pDIQ peptide; uncoupled beads as control; western blot. The conditions noted are these: both partners purified.

T1 sequence (Q00987 whole entry): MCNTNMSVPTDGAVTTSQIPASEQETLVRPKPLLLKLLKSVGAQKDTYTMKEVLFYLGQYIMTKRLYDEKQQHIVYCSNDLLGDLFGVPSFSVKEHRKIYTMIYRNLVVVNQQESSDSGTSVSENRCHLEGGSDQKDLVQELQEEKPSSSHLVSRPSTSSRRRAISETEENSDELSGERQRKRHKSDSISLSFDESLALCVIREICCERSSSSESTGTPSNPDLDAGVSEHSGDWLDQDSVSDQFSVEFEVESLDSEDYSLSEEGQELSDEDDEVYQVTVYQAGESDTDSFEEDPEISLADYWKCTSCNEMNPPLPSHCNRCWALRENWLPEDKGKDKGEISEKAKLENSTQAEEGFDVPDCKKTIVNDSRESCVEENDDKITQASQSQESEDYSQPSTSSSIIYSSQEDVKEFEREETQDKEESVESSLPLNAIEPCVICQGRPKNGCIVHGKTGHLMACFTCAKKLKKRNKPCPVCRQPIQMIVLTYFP

For ETFEHWWSQLLSGGC [pDIQ peptide], the binding result is on record as “binds”.
